From the DeepSol protein solubility set come the findings set out here.

This data set in a line: soluble on expression in E. coli; label from the status in PepcDB or PDB records.
As to “NDDKEAKKEAQEKEKNTPNGLVYTNLDFDSFKATIKNLKDKKVTFKEVNPDIIKDEVFDFVIVNRVLKKIKDLKHYDPMIEKIFDEKGKEMGLNVEIQINPEVKDFFTFKSISTTNKQRCFLSLRGETREILCDNKLYNMLLAVFNSYDPNDLLKHISTVESLKKIFYTITCEAVY”, the “soluble on expression in E. coli” value is listed as “soluble”.

“NDNSPRFEKSVYEADLAENSAPGTPILQLRAADLDVGVNGQIEYVFGAATESVRRLLRLDETSGWLSVLHRIDREEVNQLRFTVMARDRGQPPKTDKATVVLNIKDENDNVP”: the “soluble on expression in E. coli” value is reported as “soluble”.

Consider “NHVRRVQELSKFFAEEMGLDEDLVHKIYLYAPLHDIGKIKVPKEILNKKGKLTAEEWEIMKKHTIWGGELLSGRKELEVARNIALYHHESYDGTGYPFGLKDDEIPIEAQIVKIVDVYDAL”, for which the “soluble on expression in E. coli” value is on record as “not soluble”.

As for “NKDFQWDFSLNWSKSVKKLTEIYGGQKKFGDLKVGDRADAFYGSQWQKSADGELILDENGMPTKDAYKQYLGHLDPNFRMGMQNTFRYKDFTLSVDLDGAYKGVIYSVLSEKLWWGGKHPESVEYRDAQYAVGHPIYVPNGVVVTGGELKRDIDGNVISDTRTYKRNTTAVDWQQWCQNYPYQAYVSSKENAKFANVFDRSYIKLRRVALTYNFTKLLSKQSPVKGLTATVFGNNLAVWKKVPFVDPDYTGDSNDGGANDPTARYIGMGVNIKF”, the “soluble on expression in E. coli” value was “not soluble”.

Take “NKDNPYIKPDDPRPVVLFCSTFSPSLTCAPEVFEQIKALSQKSQWRWLVQFHPKMKPSIVEQYKTLENENLQFVETDNVIPLLQAGDVMLCDTSSILLMFLMQRKPVVTFKNQSPKAHLIDINRVEEIEPAITRALSRTDDLMAHIHDYCNQIHPTGDGQSSQRVLAATDA”: the “soluble on expression in E. coli” value is given as “not soluble”.

Consider “NLHGMEQIEFQVSAHRDLPLRPLNKVASGGELSRISLAIQVITSKAGTVPTLIFDEVDTGIGGRIAAIVGKLLQQLGKTRQVMSITHLPQVAARGDHHWRVSKTSETED”, for which the “soluble on expression in E. coli” value was “not soluble”.

Turning to “NLLIQELCQAVINHFVRYLNINLGALYVSNEVESSLHLLSGYALSKAKKEMPAIRFGDGIVGQVAQERRLLVLENIPGENFVLESGLGDIQPSHILIAPILYQERMLGVIELGSLEPFTENHKEYMSHVMDSIAIAITSAHAREKVRELLEETQR”, the “soluble on expression in E. coli” value was “not soluble”.

Consider “NLYFQGHMDNVDELRKIENKSSFVSADNMPEYVKGAFISMQDERFYNHHGFDLKGTTRALFSTISDRDVQGGSTITQQVVKNYFYDNDRSFTRKVKELFVAHRVEKQYNKNEILSFYLNNIYFGDNQYTLEGAANHYFGTTVNKNSTTMSHITVLQSAILASKVNAPSVYNINNMSENFTQRVSTNLEKMKQQNYINETQYQQAMSQLN”, for which the “soluble on expression in E. coli” value is recorded as “soluble”.

Take “NPHMWWLQDADPENNSRQASPSQESINQLVYMGFDTVVAEAALRVFGGNVQLAAQTLAHHGGSLPPDLQF”: the “soluble on expression in E. coli” value is “soluble”.

As to NSSFTPSTVPNINFSGLNGGITNTATNALRPSDIFGANA, the “soluble on expression in E. coli” value is “soluble”.

In the case of “NSYVFDLPHNQHKLTKFAHKGILFNSVHLERDGTLKFPQLKQSKQKPAVSSELKTAIKRIKAGYKKVKPNYKKRQKQQIAELFAKRKQRRSWKNF”, the “soluble on expression in E. coli” value was “not soluble”.

For “NTTHAYVHASPPHSVPIAGASTAAVTHQQATQLKGTDELYGLGNLPSSGPGRWEYLANPENWHPERRKLHEKLLDEARSSALTLAESLERDGCQPTLFALRGNTATGKTRIATKKIPALAAALEKTGGKGCINPDVFKSSLAKSEAGAKIFSSAQVHNESCFLADHFEDGLRSQRTGSGAIASIVVDKRLARAYEIDSYIELAKETGRKVELCDIDAPLENSLTGVLQRKPEGEDPRPPYPVVSSGFVAVRSNRMSVIDRFIADPSLGNYRLFGTAEDGKKVMVASVMGGELSVEDADLYEKITSPQSSVTGDLADKIIDNELIDRLTNNIDDPERAANTRAALEKYNGKSWSAALAAHSELI”, the “soluble on expression in E. coli” value was “not soluble”.

For “NVVLKDASELLDEVVVIGYGAVKKSDLTSSISTVKGKEITETVTGNAMDALQGKINGVQVTSGGGPGAQPKVLIRGVTTVNGTDPLYVVDGMPVGTNINFLNSNDIESMEVLKDASAAAIYGTRASNGVILITTKKGMAGK”, the “soluble on expression in E. coli” value is recorded as “not soluble”.

“PAKRAFSNADQFVETMLPLAKEAAARIGVDPVMLVAQAALETGWGKSIMRQQDGSSSHNLFGIKAAGSWKGAEARAITSEFRDGKMVKETADFRSYDSYADSFHDLVSLLQNNNRYKDVVNSADKPEQFVKELQKAGYATDPAYASKISQIAKQMKS”: the “soluble on expression in E. coli” value is “not soluble”.

On to “PATDASVLLVQLSDSHLFAEDGARLLGMDTAHSLEKVVERVAREQPRIDLILATGDVSQDGSLDSYTRFRRLSAPLDAPLRWFAGNHDEREPMQRATEGSDLLEQVVDVGNWRVVLLDSSIPGAVPGYLEEDQLELLRRAIDSAGERFLLVSFHHHPVPIGSDWMDPIGLRNPQALFDLLAPYPQVRCLLWGHIHQEFDRQRGPLRLLASPSTCVQFAPGSSDFTLDRLAPGYRWLRLHDDGRLETGISRVDDVVF”, for which the “soluble on expression in E. coli” value is “not soluble”.

As for “PDVSVQEMVSAYTTFVNKGIRVNPLPITRIEDQYGNVVAQFSPNMVEVLPPDAAYKMLYMLKSVVDGGTGSRLRYRYGFKLDMGGKTGTTQNNSD”, the “soluble on expression in E. coli” value is recorded as “not soluble”.

As for “PEHIRQMAQAVEGVTPRALPDLPVACRLSGLEPLTIEKETLFINVGERTNVTGSARFKRLIKEEQYDEALEVARQQVENGAQIIDINMDEGMLDAQACMVRFLNLCASEPEISKVPIMVDSSKWEVIEAGLKCIQGKGIVNSISLKEGKEKFVEQAKLIRRYGAAVIVMAFDEVGQAETRTRKLEICTNAYRILVDEVGFPPEDIIFDPNIFAVATGIDEHNNYAVDFIEAVADIKRDLPHAMISGGVSNVSFSFRGNNYVREAIHAVFLYHCFKNGMDMGIVNAGQLEIYDNVPEKLREAVEDVVLNRRDDATERLLDIAAEYADKGVGKEEDASAL”, the “soluble on expression in E. coli” value was “not soluble”.

As for “PEIAEVVIGVGENAVKIGGEEVLHRHELTFFNPTGFFYDVWDTMDDKALEERCDRVVSYKKFYVGNFLTLDGFAVRCTSGDPKRYREVVKKVASYGKPLILVALDSECMKAALEEVADQRPLMYAATEGNWKEFLKLALEYKVPVTLRAKDLDLLKSMAVTFKQAGVKDIVLDPVTEPLGEGLKGTFERVIQLRRTAIAGQDKDVAYPIMITPIAAWLIEGDDVTKSYWEAVIASIFIVKYGDVMIFRSIDQHVVMPTITLRFNIYTDPRTPVQVEPGLRAINDPGPDDPVFITTNFALTYYTVESDLTSGGIKGWLLVLNTEGLGVEVSVAGGQFTASKVKELIEETKIEEKVNHRYLVIPGLAARLQGAIEDETGWKVLVGPMDSGRIKGWLEKNWP”, the “soluble on expression in E. coli” value is “not soluble”.

For the sequence “PGSEFELGNKGNNILNSNESRLNVNENNILREKFENYARIVFQFNNSRQANGNFDIANEFISILSSANGTRNAQLLESWKILESMKSKDINIVEVGKQYLEQQFLQYTDNLYKKNMNEGLATNVNKIKSFIDTKLKKADKSWKISNLTVINGVPIWALIFYLLRAGLIKEALQVLVENKANIKKVEQSFLTYFKAYASSKDHGLPVEYSTKLHTEYNQHIKSSLDGDPYRLAVYKLIGRCDLSRKNIPAVTLSIEDWLWMHLMLIKEKDAENDPVYERYSLEDFQNIIISYGPSRFSNYYLQTLLLSGLYGLAIDYTYTFSEMDAVHLAIGLASLKLFKIDSSTRLTKKPKRDIRFANILANYTKSFRYSDPRVAVEYLVLITLNEGPTDVELCHEALRELVLETKEFTVLLGKIGRDGARIPGVIEERQPLLHVRDEKEFLHTITEQAARRADEDGRIYDSILLYQLAEEYDIVITLVNSLLSDTLSASDLDQPLVGPDDNSETNPVLLARRMASIYFDNAGISRQIHVKNKEICMLLLNISSIRELYFNKQWQETLSQMELLDLLPFSDELSARKKAQDFSNLDDNIVKNIPNLLIITLSCISNMIHILNESKYQSSTKGQQIDSLKNVARQCMIYAGMIQYRMPRETYSTLINIDVSL”, the “soluble on expression in E. coli” value is “soluble”.

Consider “PISFGLSVRKSLAKGFSVETGLTYTLLSSDAKFADSDQKTEQKLHYLGIPLKANWNFLDKKLFTLYVSGGGMIEKCVYGKLGTEKETVKPLQFSVSGAVGAQFNATKRVGIYVEPGVAYFFDDGSDVQTIRKENPFNFNIQAGIRLTY”, for which the “soluble on expression in E. coli” value was “not soluble”.

In the case of “PKALIVYGSTTGNTEYTAETIARELADAGYEVDSRDAASVEAGGLFEGFDLVLLGCSTWNDDSIELQDDFIPLFDSLEETGAQGRKVACFGCGDSSYEYFCGAVDAIEEKLKNLGAEIVQDGLRIDGDPRAARDDIVGWAHDVRGAI”, the “soluble on expression in E. coli” value was “soluble”.

Regarding “PKTQRGIYHNLKESEYVASNTDVTFFFSSELYLNKFLDGYQEYRKKFNKKIERVAVTPWNMDMLADITFYSEVEKRGFHAWLKGDNATWREVHVYALRIMTKPNTLDWSRIQKPRLRERRKSM”, the “soluble on expression in E. coli” value is “soluble”.

As for “PKWQAVRAEYQRQRDPLHQFASQQNPEAQLQALQDKIRANPQNSEQWALLGEYYLWQNDYSNSLLAYRQALQLRGENAELYAALATVLYYQASQHMTAQTRAMIDKALALDSNEITALMLLASDAFMQANYAQAIELWQKVMDLNSPRINRTQLVESINMAKLLQRRSDLEHHHHHH”, the “soluble on expression in E. coli” value is recorded as “soluble”.

Consider “PLAIVTSPEIKSPGDLKGKRLMLSEVNIDSANFTHMLQGFGLSMKDIQILSTSFNIHDFIDGKVDAYSIFLTNELFDLQRLGVRYNILDPSNYGVELYDENLFGAKEFVLKNPTLVKRFIDASNRGWQYALDHPEEIVDLILERYNTQ”, for which the “soluble on expression in E. coli” value is “not soluble”.

For “PLGSEEEEEDAGLVAEAEAVAAGWMLDFLCLSLCRAFRDGRSEDFRRTRNSAEAIIHGLSSLTACQLRTIYICQFLTRIAAGKTLDAQFENDERITPLESALMIWGSIEKEHDKLHEEIQNLIKIQAIAVCMENGNFKEAEEVFERIFGDPNSHMPFKSKLLMIISQKDTFHSFFQHFSYNHMMEKIKSYVNYVLSEKSSTFLMKAAAKVVESKR”, the “soluble on expression in E. coli” value was “soluble”.

As for “PPCDSIVVAYYFCGEPIPYETLVRGRAVTLGQFKELLTKKGSYRYYFKKVSDEFDCGVVFEEVREDEAILPVFEEKIIGKVEKVD”, the “soluble on expression in E. coli” value was “soluble”.

Consider “PQPSRPRKGSLGFGPRKRSTSETPRFNSWPSDDGQPGVQGFAGYKAGMTHVVLVNDEPNSPREGMEETVPVTVIETPPMRAVALRAYEDTPYGQRPLTEVWTDEFHSELDRTLDVPEDHDPDAAEEQIRDAHEAGDLGDLRLITHTVPDAVPSVPKKKPDVMETRVGGGSVSDRLDHALDIVEDGGEHAMNDIFRAGEYADVAGVTKGKGTQGPVKRWGVQKRKGKHARQGWRRRIGNLGPWNPSRVRSTVPQQGQTGYHQRTELNKRLIDIGEGDEPTVDGGFVNYGEVDGPYTLVKGSVPGPDKRLVRFRPAVRPNDQPRLDPEVRYVSNESNQG”, for which the “soluble on expression in E. coli” value is “soluble”.
